This note sets out measurements from US20150086555A1.

What all share (settings): remark: other sources report otherwise
Assay [1] deals with recombinant homotrimeric HA A/duck/Yangzhou/02/05 H8N4 (Influenza A virus A/duck/Yangzhou/02/2005(H8N4)). The assay is described as follows: protein microarray, purified IgG, trimeric HA.
Assay [2] addresses recombinant homotrimeric HA A/swine/Ontario/01911-2/99 H4N6 (Influenza A virus A/Swine/Ontario/01911-2/99 (H4N6)). The assay is described as follows: protein microarray, purified IgG, trimeric HA.
For assay [3], the target named is recombinant soluble homotrimeric HA of A/Anhui/1/05 (H5N1) (Influenza A virus A/Anhui/1/2005(H5N1)). As to the kind of experiment: trimeric HA microarray, transfection supernatant set 2.
For assay [4], the target named is recombinant soluble homotrimeric HA of A/California/4/09 (H1N1) (Influenza A virus A/California/04/2009(H1N1)). The description is as above.
Assay [5] has as its target T1, recombinant soluble homotrimeric HA of A/Egypt/3300-NAMRU3/08 (H5N1) (Influenza A virus A/Egypt/3300-NAMRU3/2008(H5N1)). Described as above.
Assay [6] deals with recombinant soluble homotrimeric HA of A/Indonesia/5/05 (H5N1) (Influenza A virus A/Indonesia/5/2005(H5N1)). The description is as above.
For assay [7], the target named is recombinant soluble homotrimeric HA of A/Japan/305/57 (H2N2) (Influenza A virus A/Japan/305/1957(H2N2)). Described as above.
Assay [8] addresses recombinant soluble homotrimeric HA of A/Netherlands/219/03 (H7N7) (Influenza A virus A/Netherlands/219/03(H7N7)). The description is as above.
In assay [9] the target is recombinant soluble homotrimeric HA of A/Solomon Islands/3/06 (H1N1) (Influenza A virus A/Solomon Islands/3/2006(H1N1)). The assay is described as above.
The target of assay [10] is recombinant soluble homotrimeric HA of A/South Carolina/1/18 (H1N1) (Influenza A virus A/South Carolina/1/18 (H1N1)). Described as above.
For assay [11], the target named is recombinant soluble homotrimeric HA of A/Vietnam/1203/04 (H5N1) (Influenza A virus A/VietNam/1203/2004(H5N1)). The description is as above.
Assay [12] has as its target recombinant soluble homotrimeric HA of A/chicken/Vietnam/NCVD-016/08 (H5N1) (Influenza A virus A/chicken/Vietnam/NCVD-016/2008(H5N1)). The description is as above.
The target of assay [13] is recombinant soluble homotrimeric HA, A/Anhui/1/05 H5N1 (Influenza A virus A/Anhui/1/2005(H5N1)). As to the kind of experiment: microarray, transfection SN IgG, trimeric HA.
Assay [14] has as its target recombinant soluble homotrimeric HA, A/California/4/09 H1N1 (Influenza A virus A/California/04/2009(H1N1)). The assay is described as follows: microarray, transfection SN IgG, trimeric HA.
Assay [15] concerns the target recombinant soluble homotrimeric HA, A/Egypt/3300-NAMRU3/08 H5N1 (Influenza A virus A/Egypt/3300-NAMRU3/2008(H5N1)). The assay is described as follows: microarray, transfection SN IgG, trimeric HA.
Assay [16] concerns the target recombinant soluble homotrimeric HA, A/Hong Kong/156/97 H5N1 (Influenza A virus A/Hong Kong/156/97 (H5N1)). As to the kind of experiment: microarray, transfection SN IgG, trimeric HA.
Assay [17] addresses recombinant soluble homotrimeric HA, A/Indonesia/5/05 H5N1 (Influenza A virus A/Indonesia/5/2005(H5N1)). As to the kind of experiment: microarray, transfection SN IgG, trimeric HA.
The target of assay [18] is recombinant soluble homotrimeric HA, A/Japan/305/57 H2N2 (Influenza A virus A/Japan/305/1957(H2N2)). As to the kind of experiment: microarray, transfection SN IgG, trimeric HA.
For assay [19], the target named is recombinant soluble homotrimeric HA, A/Solomon Islands/3/06 H1N1 (Influenza A virus A/Solomon Islands/3/2006(H1N1)). The assay is described as follows: microarray, transfection SN IgG, trimeric HA.
Assay [20] deals with recombinant soluble homotrimeric HA, A/South Carolina/1/18 H1N1 (Influenza A virus A/South Carolina/1/18 (H1N1)). The assay is described as follows: microarray, transfection SN IgG, trimeric HA.
Assay [21] addresses recombinant soluble homotrimeric HA, A/Vietnam/1203/04 H5N1 (Influenza A virus A/VietNam/1203/2004(H5N1)). The assay is described as follows: microarray, transfection SN IgG, trimeric HA.
Assay [22] addresses recombinant soluble homotrimeric HA, A/Wisconsin/67/05 H3N2 (Influenza A virus A/Wisconsin/67/2005(H3N2)). The assay is described as follows: microarray, transfection SN IgG, trimeric HA.
The target in assay [23] is recombinant soluble homotrimeric HA, A/chicken/Vietnam/NCVD-016/08 H5N1 (Influenza A virus A/chicken/Vietnam/NCVD-016/2008(H5N1)). As to the kind of experiment: microarray, transfection SN IgG, trimeric HA.
Assay [24] concerns the target recombinant soluble homotrimeric HA, A/duck/Yangzhou/02/05 H8N4 (Influenza A virus A/duck/Yangzhou/02/2005(H8N4)). As to the kind of experiment: microarray, transfection SN IgG, trimeric HA.
The target in assay [25] is T1, recombinant soluble homotrimeric HA of …. The assay is described as follows: HA microarray, BCC supernatant.
Assay [26] deals with recombinant soluble homotrimeric HA, A/northern shoveler/California/HKWF115/07 H6N4 (Influenza A virus A/northern shoveler/California/HKWF115/2007(H6N1)). The assay is described as follows: microarray, transfection SN IgG, trimeric HA.

B1: TCN-528 (5087_P17) (antibody, V domains shown)
VH: QVQLVQSGSEVKKPGASVKVSCKASGYTFTNYDINWIRQAPGQGLEWMGWINPNSGTTGSAQRFQGRVTITVDTSITTVYMELSSLRSDDTAIYYCARGRELLRLQHFLTDSQSERRDCFDPWGQGTLVTVSS
VL: DIQMTQSPSSLSASVGDRVTITCRANQDIGIYLNWYQQNPGKVPKLLLHGASSLQGGVPSRFSASGSGTDFTLTIHSLQPEDLATYYCQQSRRLPYTFGQGTRVELK
For B1, the Trimeric HA Binding: RLU in assay [1] amounted to 24100 RLU; in [2] it was 9490 RLU; in assay [3], 21200 RLU; in assay [4] it was 44600 RLU; in assay [5], 36800 RLU; in assay [6] it was 39700 RLU. For the same molecule, the Trimeric HA Binding: RLU was determined as 23100 RLU in assay [7]; 47200 RLU in assay [8]; 26900 RLU in [9]; 25200 RLU in assay [10]; 23300 RLU in assay [11]; 22600 RLU in assay [12].

B2: TCN-504 (3251_K17) (antibody, V domains shown)
VH: QVQLQESGPGLVKPSETLSLTCAVSGVSISNIDFYWGWIRQPPGKGLEWIGNIYYTGITFYNPSLSSRVAISIDTSKNQFSLTLTSVTAADTAMYYCARHYGDSEAINDAFDIWGQGTMLTVSS
VL: EIVMTQSPATLSVSPGERATLSCRASQSVGNSLAWYQQRPGQAPRLLIYGASTRATGIPPRFSGSGSGTEFTLTISSLQTEDFAVYYCQQYINWRPLSFGGGTKVEIK
As for B2, the Trimeric HA Binding: RLU in assay [13] is 37200 RLU; in [14] it was 17600 RLU; in assay [15], 20600 RLU; in assay [16], 26600 RLU; in assay [17], 18500 RLU; in assay [18] it was 23300 RLU. Also, the Trimeric HA Binding: RLU in assay [19] worked out at 30100 RLU; in assay [20], 32000 RLU; in assay [21], 21500 RLU; in [22], 38100 RLU; in [23], 34200 RLU; in assay [24], 35100 RLU. The Trimeric HA Binding: RLU in assay [3] turned out to be 31000 RLU; in assay [4] it was 15600 RLU; in assay [5] it was 21400 RLU; in assay [6] it was 19700 RLU; in assay [7], 22600 RLU; in assay [8], 19300 RLU. The Trimeric HA Binding: RLU in assay [9] turned out to be 31400 RLU; in [10] it was 24700 RLU; in [11], 15000 RLU; in assay [12] it was 27300 RLU.

B3: TCN-523 (5248_A17) (antibody, V domains shown)
VH: QVQLVQSGAEVKKPGSSVKVSCKASGGSFSNYAFSWVRQAPGQGLEWMGGTIPLLGTTNYAQKFQGRVTISADQFTSTAYMELGSLRSEDTAVYYCTRRKMTTAFDSWGQGTLVTVSS
VL: QPVLTQPPSASASLGASVTLTCTLSSAYSNYKVDWYQQRPGKGPRFVMRVGTGGIVGSKGDGIPDRFSVLGSGLNRYLTIKNIQEEDESDYHCGADHGSGSNFVSPYVFGGGTKLTVL
B3: the Trimeric HA Binding: RLU was determined as 36500 RLU in [25]; 6080 RLU in assay [13]; 34400 RLU in [14]; 35500 RLU in assay [15]; 28400 RLU in [16]; 55000 RLU in [17]. Moreover, the Trimeric HA Binding: RLU in assay [18] came out at 22000 RLU; in assay [19], 37600 RLU; in assay [20], 52000 RLU; in assay [21], 27800 RLU; in assay [23] it was 51300 RLU; in [26] it was 46900 RLU. Further, the Trimeric HA Binding: RLU stood at 85 RLU in assay [2]; 139 RLU in assay [3]; 18700 RLU in assay [4]; 30700 RLU in assay [5]; 24500 RLU in assay [6]; 882 RLU in assay [7]. Also, the Trimeric HA Binding: RLU in assay [8] was 407 RLU; in assay [9], 3270 RLU; in [10], 25500 RLU; in assay [11], 26200 RLU; in assay [12], 17600 RLU.
